What was measured:
[1] = tested on: cumulus expansion of oocytectomised (OOX) complexes; assay: FSH-induced cumulus expansion score of OOX complexes; type: cell-based, mice; conditions: score 0 (no expansion) to +4 (maximum expansion); mean ±SEM; OOX complexes with FSH
Protocol: Members of the TGF-β superfamily are prime candidates for the mouse cumulus expansion-enabling factor (CEEF). This study was conducted to examine TGF-β superfamily processes regulating cumulus expansion. COCs were collected from eGG-primed mice and the oocyte microsurgically removed to generate oocytectomised (OOX) complexes. […] The type-I receptors for GDF9 and […] are ALK5 and ALK4, respectively. We tested the ability of an ALK4/5/7 kinase inhibitor to neutralize cumulus expansion.

[2] = tested on: Smad 3-responsive CAGA-luciferase reporter; assay: Smad 3-responsive CAGA-luciferase reporter in mural granulosa cells from large antral follicles; type: cell-based, marmoset monkey, Callithrix jacchus; conditions: 48 h; 0.5 ng/ml TGFβ1, 88-265 ng/ml GDF9, 50 ng/ml BMP7 or 60 mouse oocytes
Protocol: (§1) FIGS. 18A and 18B show the activation of the TGF-β signalling pathway by GDF9 and oocytes. MGC from large follicles were transiently transfected with either a Smad 3-responsive CAGA-luciferase reporter construct (A) or a Smad 1-responsive BRE-luciferase reporter construct (B). Cells were subsequently left untreated, treated with 0.5 ng/ml TGFβ1, 88-265 ng/ml GDF9, 50 ng/ml BMP7 or co-cultured with 60 mouse oocytes. Cells were cultured for 48 h after which time luciferase activity was measured from cell extracts. Bars represent means+/− SEM from 3 replicate experiments expressed as a fold change relative to control.
(§2) Luciferase reporter constructs responsive to specific phosphorylated Smads were used to detect the activation of mural GC Smad proteins by recombinant GDF9 Mural GCs were collected and processed as described above, except cells were given a final wash in DMEM(MP Biomedicals, Seven Hills, Australia)+2% FCS (Trace Biosciences, Castle Hill, Australia). Following the final wash, cells were transferred to individual wells of a 96-well plate (Falcon) and cultured at 1.6×10^5 cells/ml. After 4 hours of culture, cells were transiently transfected with 50 ng of luciferase reporter construct DNA using Fugene 6 (Roche Diagnostics, Castle Hill, Australia). 18 hours after transfection, medium was aspirated from cells and replaced with DMEM supplemented with 0.1% FCS. Various ligands were added to cells at this point (see below) and the culture period extended for a further 48 hours. Experiments were terminated by removing media from wells and freezing plates at −20° C. […]
(§3) Seven adult female marmosets were primed with […] for 6 days, whole ovaries were removed on day 7, follicles manually excised, and GC were then collected from 3 size classes: periantral (PA; 0.42-0.66 mm), small antral (SA; 0.66-1.5 mm) and large antral (LA; >1.5 mm). […] In order to determine the effects of GDF9 on marmoset GC proliferation, we employed a GC bioassay whereby after 24 h ^3H-thymidine incorporation is assessed as an indicator of DNA synthesis and cellular proliferation. […]

[3] = tested on: Smad 1-responsive BRE-luciferase reporter; assay: Smad 1-responsive BRE-luciferase reporter in mural granulosa cells from large antral follicles; type: cell-based, marmoset monkey, Callithrix jacchus; conditions: 48 h; 0.5 ng/ml TGFβ1, 88-265 ng/ml GDF9, 50 ng/ml BMP7 or 60 mouse oocytes
Protocol: as §1, §2, §3

mural granulosa cells = assay: Mural granulosa cell DNA synthesis, 3H-thymidine incorporation; type: cell-based, marmoset monkey, Callithrix jacchus; conditions: peri antral, small antral and large antral follicles; most notably small follicles, synergism with IGF1
Protocol: Mural GC from large antral follicles were cultured for 24h and thymidine incorporation was stimulated with 175 ng/ml GDF9. […] Bars/points represent means+/−SEM from 3 replicate experiments expressed as a fold change relative to control.
Follicles were manually excised and separated into 3 size classes: periantral (PA; 0.42-0.66 mm), small antral (SA; 0.66-1.5 mm) and large antral (LA; >1.5 mm). GCs from each follicle size were collected and pooled, then washed twice in bicarbonate-buffered tissue culture medium-199 (B-TCM) supplemented with 0.3 mg/ml of polyvinyl alcohol (PVA, Sigma). Depending on the individual experiments, mural GCs (1×10^5 cells/ml), hormones, inhibitors and media were added to wells of 96-well plates (Falcon) to give a final volume of 125 μl. Within each experiment, all treatments were carried out in at least duplicate wells and each experiment was replicated on at least 3 occasions. Cells were cultured in an atmosphere of 37° C., 96% humidity in 5% CO2 in air for 18 hours, followed by a further 6 hour pulse of 15.4 kBq tritiated thymidine (3H-thymidine, ICN) under the same conditions.
Seven adult female marmosets were primed with […] for 6 days, whole ovaries were removed on day 7, follicles manually excised, and GC were then collected from 3 size classes: periantral (PA; 0.42-0.66 mm), small antral (SA; 0.66-1.5 mm) and large antral (LA; >1.5 mm). Four different approaches were utilized to examine GDF9 function in GC. […] To examine the GDF9 signalling pathway, cultured GC from LA follicles were transfected with either a CAGA-luciferase or BRE-luciferase reporter construct and treated with various TGF-β superfamily growth factors or co-cultured with mouse oocytes. In order to determine the effects of GDF9 on marmoset GC proliferation, we employed a GC bioassay whereby after 24 h ^3H-thymidine incorporation is assessed as an indicator of DNA synthesis and cellular proliferation. […] In another experiment, GC were treated with an increasing dose of SB431542, an activin-like kinase (ALK) 4/5/7 inhibitor, in the presence of GDF9+/−IGF1.

B1: GDF-9: Recombinant mouse GDF-9 produced in-house in transfected 293H cells, partially purified by HIC (protein, UniProt Q07105 307-441, looked up)
Growth/differentiation factor …: GQKAIRSEAKGPLLTASFNLSEYFKQFLFPQNECELHDFRLSFSQLKWDNWIVAPHRYNPRYCKGDCPRAVRHRYGSPVHTMVQNIIYEKLDPSVPRPSCVPGKYSPLSVLTIEPDGSIAYKEYEDMIATRCTCR
cumulus expansion score [1]: 3.7±0.1 | CAGA-luciferase activity above control levels [2]: 5 fold | BRE-luciferase activity compared to control levels [3]: not activated | GC DNA synthesis (mural granulosa cells): stimulates GC DNA synthesis in all follicle sizes

Reference: US8530235B2, “Medium that supports culture of an oocyte and modulation of granulosa cell apoptosis” (Adelaide Research & Innovation Pty Ltd., priority 2005, dated 2013)
